Columns and labels:
[1] = tested on: T1, fluorogenic composition Cy5-SEQ. ID. NO.: 1-Cy7Q
T1 sequence: KIIDEDLNSRALG

[2] = tested on: T2, hC3 peptide modified with Gly attached to a Cy5 dye at the N terminus
T2 sequence: KIIDEDLNSRALG

Substance: C3 convertase (in human plasma)
- fluorescence intensity (excitation 623 nm, emission 676 nm), latex-activated plasma against plasma alone after subtracting the PBS control [1]: the signal enhancement due to Latex activation of complement was >100%
- fluorescence intensity (excitation 623 nm, emission 676 nm), plasma incubated on latex coated polystyrene against plasma alone [1]: showed >50% enhancement in signal over the plasma alone sample
- cleavage of the Cy5-labelled peptide in human plasma in a Latex plate, by reverse phase HPLC at 670 nm [2]: A new peak was observed in addition to the original peak. The new peak represents the cleavage product.
